Broadly, the Km is the concentration of substrate that gives half-maximal velocity. As a reminder, the kcat is the maximal rate divided by the concentration of active sites. As usually defined, the kcat/Km is the turnover number divided by the Michaelis constant.

The subject of data set [1] is O=[N+]([O-])c1ccccc1O[C@@H]1O[C@H](CO)[C@H](O)[C@H](O)[C@H]1O. As to the kind of experiment: o-nitrophenol release, A420, Michaelis-Menten non-linear fit. It is filed as biochemical, Bifidobacterium longum subsp. infantis. The note with it: optimum pH 5.0 and optimum temperature 45-55 °C, 0.1-4 mM ONPG.
Substrate in data set [2]: O=[N+]([O-])c1ccccc1O[C@@H]1O[C@H](CO)[C@H](O)[C@H](O)[C@H]1O
The data set is described as above. It is filed as biochemical, Bifidobacterium longum. Particulars: optimum pH 5.0-6.0 and optimum temperature 45-55 °C, 0.1-4 mM ONPG.

With “Blon_0268 (Bifidobacterium longum subsp. infantis ATCC 15697 = JCM 1222 = DSM 20088)”, in data set [1], the Km is 600 µM, the kcat was 5.11 s⁻¹ and the kcat/Km worked out at 8500 M⁻¹ s⁻¹.

B1: Blon_2123 (Bifidobacterium longum subsp. infantis ATCC 15697 = JCM 1222 = DSM 20088) (protein)
chain: MRARRDFAWPKLLTADGRGIAFGGDYNPDQWPEDVWDDDIRLMGQAGVNTVALAIFSWDRLQPTEDHWNFDWLDRIIDKLGQAGIAVDLASATATAPLWLYENHPEVLPRDKYGHPVNAGSRQSWSPTSPVFKEYALTLCRKLAERYGTNPYVTAWHMGNEYGWNNRDDYSDNALEAFRAWCRRKYGTIDALNQAWGTTFWGQEMTGFDEVLIPRFMGADSMVNPGQKLDFERFGNDMLLDFYKAERDAIAEICPDKPFTTNFMISTDQCCMDYAAWAEEVNFVSNDHYFHEGESHLDELACSDALVDSLALGKPWYVMEHSTSAVQWKPLNTRKRNGETVRDSLAHVAMGADAINFFQWRASAFGAEAFHSAMVPHAGENTKLFRQVCELGATLQALADAGVQGSELAHADTAILFSAESEWATRSETLPSMKLNHWHDVRDWYRAFLNAGARADIVPLAYDWSSYKTIVLPTVLMLSDADTRRLAGFVQDGGRVVVGYATGLLDERFHTWLGGYPGAGDGLLRSMLGVRGEEFNILGTETEDEPSEIRLASTGDSPTMDGAVTRLWQNDVTVAGPHVQVLAAYAGEEANEWELDGTAAITRNTYGEGEAYFLGCDLGVSDLTRFVGGWLAARPQDGRQPEANLRSPASGVTSDVLHTVRQSDDAIFDFYLTRGKSDVELRDIAGEPIVLFRAERGSDGGAYTVHRNGVLVMKRPNPSV
B1: in data set [2], the Km is 1060 µM, the kcat was found to be 270 s⁻¹ and the kcat/Km was 250000 M⁻¹ s⁻¹.

Source of the values: article PMC3593662.
